Test results from patent US20240343810A1 (published 2024).

B1: STIM001 (antibody, human IgG1, kappa)
heavy: not shown
light: DIVMTQSPLSLPVTPGEPASISCRSSQSLLHSNEYNYLDWYLQKPGQSPQLLIFLGSNRASGVPDRFSGSGSGTDFTLKITRVEAEDVGIYYCMQSLQTPLTFGGGTKVEIKRTVAAPSVFIFPPSDEQLKSGTASVVCLLNNFYPREAKVQWKVDNALQSGNSQESVTEQDSKDSTYSLSSTLTLSKADYEKHKVYACEVTHQGLSSPVTKSFNRGEC
notes: Anti-ICOS monospecific antibody, tested as human IgG1; also called STIM001 monoclonal IgG1 antibody
B2: STIM003 (antibody, human IgG1, kappa)
heavy: not shown
light: EIVLTQSPGTLSLSPGERATLSCRASQSVSRSYLAWYQQKRGQAPRLLIYGASSRATGIPDRFSGDGSGTDFTLSISRLEPEDFAVYYCHQYDMSPFTFGPGTKVDIKRTVAAPSVFIFPPSDEQLKSGTASVVCLLNNFYPREAKVQWKVDNALQSGNSQESVTEQDSKDSTYSLSSTLTLSKADYEKHKVYACEVTHQGLSSPVTKSFNRGEC
notes: Anti-ICOS monospecific antibody, tested as human IgG1; also called STIM003 monoclonal IgG1 antibody

What was measured:
[1] = molecular target: T1, mouse ICOS-mFc (Chimerigen) (mouse, UniProt Q9WVS0 21-141, limits assumed); test: DELFIA ELISA on coated mouse ICOS-mFc, mean
T1 construct: Bought; also called recombinant mouse ICOS protein; mICOS; not shown: mouse Fc of the bought fusion
T1 sequence: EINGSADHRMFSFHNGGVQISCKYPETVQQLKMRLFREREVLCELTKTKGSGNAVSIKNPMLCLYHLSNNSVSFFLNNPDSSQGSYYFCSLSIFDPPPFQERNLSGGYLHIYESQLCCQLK
Experimental: (§1) Recombinant ICOS proteins, human ICOS-mFc or mouse ICOS-mFc (Chimerigen) were diluted in 1×PBS and added to Black Hi-bind plates (Griener) at 1 μg/ml, 50 μl/well. Recombinant PD-L1 proteins, human PD-L1-Flag-His or mouse-His were diluted in 1×PBS and added to Black Hi-bind plates (Griener) at 4 μg/ml, 50 μl/well. The plates were left overnight at 4° C. The next day plates were washed 3× with 300 μl/well of 1×PBS+0.1% Tween and blocked with 200 ul/well of 1×PBS+1% BSA blocking buffer for 1 hr at RT on a plate shaker. Plates were washed 3× with 300 μl/well of 1×PBS+0.1% Tween.
(§2) However, human-PD-L1 mAb² antibodies were diluted in 1×PBS+0.1% BSA buffer and diluted 1 in 2 from a starting working concentration of 0.066 μM over an 11 point titration. Titrated antibodies were added to the plates, 50 μl/well and left to incubate for 1 hr at R.T on a plate shaker. Plates were washed 3× with 300 μl/well of 1×PBS+0.1% Tween.
(§3) DELFIA® Eu-labelled Anti-human IgG (Perkin-Elmer) was diluted 1:500 in DELFIA Assay buffer (Perkin-Elmer) and added to the assay plate (50 μl/well), left to incubate for 1 hr at RT on a plate shaker. […] After incubation, assay was read on Envision plate reader (Perkin Elmer), Time-resolved fluorescence (TRF) was measured at 615 nm.

[2] = molecular target: T2, human ICOS expressed on cells (human, UniProt Q9Y6W8 21-199); test: Flow cytometry on CHO-S human ICOS cells, anti-human IgG AF647, N=1
T2 construct: also called CHO-S cells transfected with human ICOS; hICOS
T2 sequence: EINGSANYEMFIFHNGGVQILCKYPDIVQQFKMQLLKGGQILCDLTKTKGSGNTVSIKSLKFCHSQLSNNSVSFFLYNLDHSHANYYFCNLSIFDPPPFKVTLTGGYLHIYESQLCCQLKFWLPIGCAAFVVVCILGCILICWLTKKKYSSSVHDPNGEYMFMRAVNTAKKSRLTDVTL
Experimental: (§4) CHO—S cells transfected with either human ICOS or mouse ICOS were resuspended in FACS buffer (PBS+1% w/v BSA+0.1% w/v sodium azide) and transferred to a 96-well V-bottom plate (Greiner) at a density of 1×10⁵ cells per well. mAb and mAb² were titrated in FACS buffer, 1 in 3 dilution across 11 points from a starting working concentration of 400 nM. Plates were centrifuged at 300×g for 3 minutes, supernatant discarded and 50 μL mAb or mAb² solution were added to cells and incubated at 4° C. for 1 hour. Cells were washed with 150 μL of PBS and centrifuged at 300×g for 3 minutes, supernatant was discarded and cell pellet resuspended in 150 μL PBS added. This wash step was repeated twice. Bound mAb or mAb² was detected by addition of 50 μL of anti-human 647 (Jackson ImmunoResearch) diluted to 3 ug/ml in FACS buffer. Cells were incubated for 1 hour at 4° C. in the dark. Cells were washed with 150 μL of PBS and centrifuged at 300 g for 3 minutes, supernatant was discarded and cell pellet resuspended in 150 μL PBS added. This wash step was repeated twice. Cells were fixed with 25 μL 4% v/v paraformaldehyde, incubated for 20 minutes at 4° C., cells were pelleted by centrifugation at 300×g and the supernatant discarded. […] AlexaFluor 647 signal intensity (geometric mean) was measured by flow cytometry using a Beckman Coulter CytoFLEX instrument.

[3] = molecular target: T3, mouse ICOS expressed on CHO cells (mouse, UniProt Q9WVS0 21-200); test: Flow cytometry on CHO-S mouse ICOS cells, anti-human IgG AF647, N=1
T3 construct: also called CHO-S cells transfected with mouse ICOS; mICOS
T3 sequence (looked up): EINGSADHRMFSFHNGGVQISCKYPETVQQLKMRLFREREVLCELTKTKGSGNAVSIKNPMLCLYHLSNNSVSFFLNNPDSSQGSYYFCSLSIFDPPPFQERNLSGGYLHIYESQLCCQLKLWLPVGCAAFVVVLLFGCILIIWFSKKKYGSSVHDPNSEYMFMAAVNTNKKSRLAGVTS
Experimental: as §4

[4] = molecular target: T2, human ICOS expressed on cells; test: Flow cytometry on CHO-S human ICOS cells, anti-human IgG AF647, N=2
Experimental: as §4

[5] = molecular target: T2, human ICOS expressed on cells; test: Flow cytometry on CHO-S human ICOS cells, anti-human IgG AF647, N=3
Experimental: as §4

[6] = molecular target: T1, mouse ICOS-mFc (Chimerigen); test: HTRF, mouse ICOS-mFc, competitor mouse B7-H2-Alexa 647, average
Experimental: 5 μl of human ICOS-mFc (Chimerigen) at 20 nM (5 nM final) or 5 ul of mouse ICOS-mFc (Chimerigen) at 4 nM (1 nM final) were added to relevant assay wells. Plate was incubated for 1 hour (hr) at room temperature (RT).
After incubation, assay was read on Envision plate reader (Perkin Elmer) using a standard HTRF protocol. 620 nm and 665 nm channel values were exported to Microsoft Excel and % Delta-F and % Neutralisation calculations performed. Titration curves and IC50 values [M] were plotted using Graphpad (Prism). IC50 values were calculated by first transforming the data using equation X=Log(X). The transformed data was then fitted using nonlinear regression, using fitting algorithm, log (inhibitor) vs. response—variable slope (four parameters).

[7] = molecular target: T4, mouse PD-L1 expressed on CHO cells (mouse, UniProt Q9EP73 19-290); test: Flow cytometry on CHO mouse PD-L1 cells (sentence prints 'human PD-L1')
T4 construct: also called CHO-S cells transfected with mPD-L1; CHO mouse PD-L1
T4 sequence (Q9EP73 19-290 limits assumed): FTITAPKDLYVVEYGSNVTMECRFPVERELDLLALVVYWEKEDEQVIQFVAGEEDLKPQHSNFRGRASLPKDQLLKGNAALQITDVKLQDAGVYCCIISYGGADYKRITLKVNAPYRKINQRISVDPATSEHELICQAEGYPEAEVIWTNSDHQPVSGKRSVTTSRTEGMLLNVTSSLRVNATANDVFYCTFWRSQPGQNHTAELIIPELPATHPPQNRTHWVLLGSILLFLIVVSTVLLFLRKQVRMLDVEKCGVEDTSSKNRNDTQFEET

[8] = molecular target: T1, mouse ICOS-mFc (Chimerigen); test: DELFIA ELISA on coated mouse ICOS-mFc, N=1
Experimental: as §1, §2, §3

| Binder | EC50 [1] [nM] | EC50 [2] [nM] | EC50 [3] [nM] | EC50 [4] [nM] | EC50 [5] [nM] | IC50 [6] [nM] | binding result [7] | EC50 [8] [nM] |
| --- | --- | --- | --- | --- | --- | --- | --- | --- |
| B1 | 11.4 | 30.1 | 25.7 | 13.8 | 19.7 | 8.71 | no binding (tested: 22 nM) | 11.4 |
| B2 | 0.38 | 7.22 | 6.8 | 4.89 | 4.49 | 0.37 | no binding (tested: 22 nM) | 0.416 |
